Measurements as given in US9561289B2, “Peptides for inhibiting tumor growth” (OSPEDALE SAN RAFFAELE SRL, priority 2012, dated 2017).
Like-named read-outs stand apart in the source and are kept apart here. Blank lines part the entries; values can stand above or below the molecule they belong to. *1 amine or outer side, *2 acyl side, *3 side chain or, on linkers, in order; H or OH if unused. Where a SMILES comes first, the peptide text is derived from it. Bridges are numbered along the chain shown (N, C = ends). Primed or numbered codes have the meaning given here. Side-chain parts run from the residue outwards. [ ]: non-standard residue; d: D form. The star is where a group is joined. X1 = NC(=O)C1CCC(CN2C(=O)CC(*)C2=O)CC1; βAsp = O=C(O)[C@H](CC(=O)[*:2])N[*:1]; dPhg = N[C@@H](C(=O)O)c1ccccc1; SMCC = sulfo-SMCC linker; OH′ = O*

Assays:
αvβ3 = biological target: T1, αvβ3 (Homo sapiens, UniProt P05106+P06756); test: Competitive integrin binding assay (isoDGR/STV-HRP) on αvβ3-coated plates; conditions: number in parenthesis
T1 construct: purchased Immunological Sciences (Rome, Italy)
Method: (§1) A conjugate consisting of biotinylated acetyl-Ciso[…] (SEQ ID NO:36) peptide complexed with streptavidin-peroxidase conjugate (isoDGR/STV-HRP) was first prepared as described previously. […] Each mixture was then added to microtiter plates coated with integrins (αvβ3, αvβ5, αvβ6, […], or α5β1) and incubated for 2 h at room temperature. After washing, each well was incubated with 70 μl of chromogenic solution (o-phenylenediamine dihydrochloride) for 20 min, at room temperature. The chromogenic reaction was stopped by adding an equal volume of 1 N sulfuric acid. The absorbance at 490 nm was then measured using a microtiter plate reader.
(§2) The binding affinity and selectivity of each peptide for different integrins were then analyzed by competitive binding assay, using αvβ3-, αvβ5-, αvβ6-, αvβ8- and α5β1-coated plates and isoDGR/STV-HRP, an ac-isoDGR-2C/peroxidase complex, as competitor.

αvβ5 = biological target: T2, αvβ5 (Homo sapiens, UniProt P06756+P18084); test: Competitive integrin binding assay (isoDGR/STV-HRP) on αvβ5-coated plates; conditions: number in parenthesis
T2 construct: purchased Immunological Sciences (Rome, Italy)
Method: as §1, §2

αvβ6 = biological target: T3, αvβ6 (Homo sapiens, UniProt P06756+P18564); test: Competitive integrin binding assay (isoDGR/STV-HRP) on αvβ6-coated plates; conditions: number in parenthesis
T3 construct: purchased R&D System (Minneapolis, Minn.)
Method: as §1, §2

αvβ8 = biological target: T4, αvβ8 (Homo sapiens, UniProt P06756+P26012); test: Competitive integrin binding assay (isoDGR/STV-HRP) on αvβ8-coated plates; conditions: number in parenthesis
T4 construct: purchased R&D System (Minneapolis, Minn.)
Method: as §1, §2

α5β1 = biological target: T5, α5β1 (Homo sapiens, UniProt P05556+P08648); test: Competitive integrin binding assay (isoDGR/STV-HRP) on α5β1-coated plates; conditions: number in parenthesis
T5 construct: purchased Immunological Sciences (Rome, Italy)
Method: as §1, §2

Human integrin αvβ3 [1] = biological target: T6, Human integrin αvβ3 (human, UniProt P06756 31-1048; P05106 27-788, limits assumed); test: competitive binding assay, integrin-coated plate, probe isoDGR/STV-HRP
T6 construct: Bought from Immunological Sciences; coated on microtiter plates or spotted on nitrocellulose; also called avb3; purified αvβ3-integrin

Human integrin αvβ5 [2] = biological target: T7, Human integrin αvβ5 (human, UniProt P06756 31-1048; P18084 24-799, limits assumed); test: as above
T7 construct: Bought from Immunological Sciences; coated on microtiter plates

[3] = biological target: T8, Recombinant human integrin αvβ6 (human, UniProt P06756 31-992; P18564 22-707); test: as above
T8 construct: Bought from R&D System

[4] = biological target: T9, Recombinant human integrin αvβ8 (human, UniProt P06756 31-992; P26012 43-684); test: as above
T9 construct: Bought from R&D System; also called αvβ38 [sic]

Human integrin α5β1 [5] = biological target: T10, Human integrin α5β1 (human, UniProt P08648 42-1049; P05556 21-798, limits assumed); test: as above
T10 construct: Bought from Immunological Sciences; coated on microtiter plates

Human integrin αvβ3 [6] = biological target: T6, Human integrin αvβ3; test: as above; remark: listed apart in the source
Human integrin αvβ5 [7] = biological target: T7, Human integrin αvβ5; test: as above; remark: listed apart in the source
[8] = biological target: T8, Recombinant human integrin αvβ6; test: as above; remark: listed apart in the source
[9] = biological target: T9, Recombinant human integrin αvβ8; test: as above; remark: listed apart in the source
Human integrin α5β1 [10] = biological target: T10, Human integrin α5β1; test: as above; remark: listed apart in the source

Ki (Human integrin αvβ3 [1]): 35 nM
ratio of integrin Ki/αvβ3 Ki (Human integrin αvβ3 [1]): 1
Ki (Human integrin αvβ5 [2]): 35 nM
ratio of integrin Ki/αvβ3 Ki (Human integrin αvβ5 [2]): 1
Ki [3]: 583 nM
ratio of integrin Ki/αvβ3 Ki [3]: 17
Ki [4]: 5600 nM
ratio of integrin Ki/αvβ3 Ki [4]: 160
Ki (Human integrin α5β1 [5]): 302 nM
ratio of integrin Ki/αvβ3 Ki (Human integrin α5β1 [5]): 8.6
B1: isoDGR#1-linker conjugate, peak P1 (peptide)
peptide: cyclo(C([SMCC-NH2])G[βAsp]GRG)
notes: HPLC peak P1 (amido form); also called isoDGR#1-P1

Ki (Human integrin αvβ3 [1]): 33 nM
ratio of integrin Ki/αvβ3 Ki (Human integrin αvβ3 [1]): 1
Ki (Human integrin αvβ5 [2]): 52 nM
ratio of integrin Ki/αvβ3 Ki (Human integrin αvβ5 [2]): 1.6
Ki [3]: 2730 nM
ratio of integrin Ki/αvβ3 Ki [3]: 80
Ki [4]: 10500 nM
ratio of integrin Ki/αvβ3 Ki [4]: 318
Ki (Human integrin α5β1 [5]): 318 nM
ratio of integrin Ki/αvβ3 Ki (Human integrin α5β1 [5]): 9.6
B4: isoDGR#1-linker conjugate, peak P2 (peptide)
peptide: cyclo(C([SMCC-OH′])G[βAsp]GRG)
notes: HPLC peak P2 (carboxylic form, partial hydrolysis of sulfo-succinimide); also called isoDGR#1-P2

Ki (Human integrin αvβ3 [6]): 43 nM
Ki (Human integrin αvβ5 [7]): 42 nM
Ki [8]: 58 nM
Ki [9]: 54 nM
Ki (Human integrin α5β1 [10]): 21 nM
B5: c(CisoDGRGG) (peptide)
peptide: cyclo(C[βAsp]GRGG)
SMILES: N=C(N)NCCC[C@@H]1NC(=O)CNC(=O)C[C@@H](C(=O)O)NC(=O)[C@H](CS)NC(=O)CNC(=O)CNC1=O
notes: also called isoDGR#3

The remaining lines, values behind:

Molecule: N=C(N)NCCC[C@@H]1NC(=O)CNC(=O)C[C@@H](C(=O)O)NC(=O)CNC(=O)[C@H](CSC2CC(=O)N(CC3CCC(C(N)=O)CC3)C2=O)NC(=O)CNC1=O (stereo partly shown) [isoDGR#1-P1] (GRGC(X1)GD-OH; lactam N-6)
ratio of integrin Ki/αvβ3 Ki (αvβ3) (αvβ3): (1)
ratio of integrin Ki/αvβ3 Ki (αvβ5) (αvβ5): (1)^
ratio of integrin Ki/αvβ3 Ki (αvβ6) (αvβ6): (17)
ratio of integrin Ki/αvβ3 Ki (αvβ8) (αvβ8): (160)
ratio of integrin Ki/αvβ3 Ki (α5β1) (α5β1): (8.6)

Molecule: N=C(N)NCCC[C@@H]1NC(=O)CNC(=O)C[C@@H](C(=O)O)NC(=O)CNC(=O)[C@H](CS)NC(=O)[C@@H](c2ccccc2)NC1=O [isoDGR#5, c(CGisoDGRphg)] (GR[dPhg]CGD-OH; lactam N-6)
ratio of integrin Ki/αvβ3 Ki (αvβ3) (αvβ3): (1)
ratio of integrin Ki/αvβ3 Ki (αvβ5) (αvβ5): (1.30)
ratio of integrin Ki/αvβ3 Ki (αvβ6) (αvβ6): (3.7)
ratio of integrin Ki/αvβ3 Ki (αvβ8) (αvβ8): (42)
ratio of integrin Ki/αvβ3 Ki (α5β1) (α5β1): (3.26)

Molecule: N=C(N)NCCC[C@@H]1NC(=O)CNC(=O)C[C@@H](C(=O)O)NC(=O)[C@H](CS)NC(=O)[C@@H](c2ccccc2)NC(=O)CNC1=O [isoDGR#7, c(CisoDGRGphg)] (GRG[dPhg]CD-OH; lactam N-6)
ratio of integrin Ki/αvβ3 Ki (αvβ3) (αvβ3): (1)
ratio of integrin Ki/αvβ3 Ki (αvβ5) (αvβ5): (0.6)
ratio of integrin Ki/αvβ3 Ki (αvβ6) (αvβ6): (0.03)
ratio of integrin Ki/αvβ3 Ki (αvβ8) (αvβ8): (0.4)
ratio of integrin Ki/αvβ3 Ki (α5β1) (α5β1): (0.04)

B2: c(CGisoDGRG) (peptide)
peptide: cyclo(CG[βAsp]GRG)
SMILES: N=C(N)NCCC[C@@H]1NC(=O)CNC(=O)C[C@@H](C(=O)O)NC(=O)CNC(=O)[C@H](CS)NC(=O)CNC1=O
notes: also called isoDGR#1
Ki (Human integrin αvβ3 [6]): 103 nM
ratio of integrin Ki/αvβ3 Ki (Human integrin αvβ3 [6]): 1
Ki (Human integrin αvβ5 [7]): 225 nM
ratio of integrin Ki/αvβ3 Ki (Human integrin αvβ5 [7]): 2
Ki [8]: 1470 nM
ratio of integrin Ki/αvβ3 Ki [8]: 14
Ki [9]: 7270 nM
ratio of integrin Ki/αvβ3 Ki [9]: 70
Ki (Human integrin α5β1 [10]): 320 nM
ratio of integrin Ki/αvβ3 Ki (Human integrin α5β1 [10]): 3

B3: isoDGR#3-linker conjugate, peak P2 (peptide)
peptide: cyclo(C(SMCC)[βAsp]GRGG)
modifications: not fully specified
notes: said to be similar to isoDGR#1-linker (P2 carboxylic form); also called isoDGR#3-P2
Ki (Human integrin αvβ3 [1]): 18 nM

Molecule: cyclo(C[βAsp]GRG) (SMILES N=C(N)NCCC[C@@H]1NC(=O)CNC(=O)C[C@@H](C(=O)O)NC(=O)[C@H](CS)NC(=O)CNC1=O, also called isoDGR#2) [c(CisoDGRG)]
Ki (Human integrin αvβ3 [6]): 483 nM
ratio of integrin Ki/αvβ3 Ki (Human integrin αvβ3 [6]): 1
Ki (Human integrin αvβ5 [7]): 492 nM
ratio of integrin Ki/αvβ3 Ki (Human integrin αvβ5 [7]): 1
Ki [8]: 899 nM
ratio of integrin Ki/αvβ3 Ki [8]: 1.9
Ki [9]: 1080 nM
ratio of integrin Ki/αvβ3 Ki [9]: 2.2
Ki (Human integrin α5β1 [10]): 266 nM
ratio of integrin Ki/αvβ3 Ki (Human integrin α5β1 [10]): 0.5
